The target in this experiment is T1, hEGFR-hIGg1Fc (SinoBiological) (human, UniProt P00533 25-645).
T1 construct: Bought reagent; also called human EGFR; human EGFR antigen; not shown: human IgG1 Fc
As to the kind of experiment: ELISA, coated hEGFR-hIgG1Fc.

B1: aPDL1ScFv-L1-aEGFRL (bispecific antibody)
heavy: QVQLQESGPGLVKPSETLSLTCTVSGGSVSSGDYYWTWIRQSPGKGLEWIGHIYYSGNTNYNPSLKSRLTISIDTSKTQFSLKLSSVTAADTAIYYCVRDRVTGAFDIWGQGTMVTVSSASTKGPSVFPLAPSSKSTSGGTAALGCLVKDYFPEPVTVSWNSGALTSGVHTFPAVLQSSGLYSLSSVVTVPSSSLGTQTYICNVNHKPSNTKVDKKVEPKSCDKTHTCPPCPAPPVAGPSVFLFPPKPKDTLMISRTPEVTCVVVDVSHEDPEVKFNWYVDGVEVHNAKTKPREEQYNSTYRVVSVLTVLHQDWLNGKEYKCKVSNKGLPSSIEKTISKAKGQPREPQVYTLPPSRDELTKNQVSLTCLVKGFYPSDIAVEWESNGQPENNYKTTPPVLDSDGSFFLYSKLTVDKSRWQQGNVFSCSVMHEALHNHYTQKSLSLSPGK
light: not shown
notes: also called aPDL1 scfv-aEGFR fusion
Turning to B1, the binding result is listed as “binds”.

B2: aPDL1ScFv-L2-aEGFRL (bispecific antibody)
heavy: QVQLQESGPGLVKPSETLSLTCTVSGGSVSSGDYYWTWIRQSPGKGLEWIGHIYYSGNTNYNPSLKSRLTISIDTSKTQFSLKLSSVTAADTAIYYCVRDRVTGAFDIWGQGTMVTVSSASTKGPSVFPLAPSSKSTSGGTAALGCLVKDYFPEPVTVSWNSGALTSGVHTFPAVLQSSGLYSLSSVVTVPSSSLGTQTYICNVNHKPSNTKVDKKVEPKSCDKTHTCPPCPAPPVAGPSVFLFPPKPKDTLMISRTPEVTCVVVDVSHEDPEVKFNWYVDGVEVHNAKTKPREEQYNSTYRVVSVLTVLHQDWLNGKEYKCKVSNKGLPSSIEKTISKAKGQPREPQVYTLPPSRDELTKNQVSLTCLVKGFYPSDIAVEWESNGQPENNYKTTPPVLDSDGSFFLYSKLTVDKSRWQQGNVFSCSVMHEALHNHYTQKSLSLSPGK
light: not shown
notes: as for B1
Consider B2, for which the binding result is “binds”.

The record behind these values is US20210403575A1 (SHANGHAI YICHEN BIOMED, published 2021).
